Reference: paper PMC10411628 (Chemical Science, 2023)

What was measured:
[1] = system: pancreatic cancer cells; conditions: cited from earlier work
[2] = Circular dichroism of DG12; assay type: physicochemical; conditions: circular dichroism spectrum
[3] = NMR titration of CP-1 with DG12; assay type: binding; conditions: 1H–1H COSY, equimolar CP-1 and DG12, 20 mM, d6-DMSO, 25 °C
[4] = biological target: CP-1 (cyclic peptide 1); test: BLI
[5] = biological target: CP-1 (cyclic peptide 1); test: nanochannel device, transmembrane ionic current and Faraday current
[6] = biological target: CP-1 (cyclic peptide 1); test: QCM-D
[7] = biological target: CP-1 (cyclic peptide 1); test: electrochemical impedance spectroscopy

## Cc1sc(C(=O)c2cncnc2N[C@@H]2C[C@H](COS(N)(=O)=O)[C@@H](O)C2)cc1[C@@H]1NCCc2ccc(Cl)cc21 [TAK-981]
[1]
  effect on SUMOylation: selectively reduces SUMOylation

## DVIEVYQEQTGG [DG12]
[2]
  conformation: random coil conformation
[3]
  largest chemical shift changes upon complexation, protons of DG12: H13 (isoleucine; C–H), H45 (glutamine; C–H), H51 (threonine; C–H), and H54 (glycine; N–H)

B1: DG12, terminal dodecapeptide sequence of SUMO1 (peptide)
peptide: DVIEVYQEQTGG
[4]
  Kd: 5.86 µM
[5]
  transmembrane ionic current increase ratio at 1 × 10^−6 M DG12: 84%
[6]
  adsorption amount: 142 ng cm^−2
[7]
  Rct increase at 10 nM DG12: 277%
